Reference: US11473073B2, “Aminopeptidases for protein hydrolyzates” (DUPONT NUTRITION BIOSCIENCES APS, priority 2015, dated 2022)

Legend:
Format in all cases: biochemical
[1] = target: T1, PepN 1 L. helveticus (Lactobacillus helveticus ATCC 12046), purified (Lactobacillus helveticus, UniProt Q10730); experiment: Activity on Glu-pNA and Gln-pNA substrates; conditions: 20 mM CPB-Buffer pH 9.0, 45° C., 405 nm
T1 construct: made in house
T1 sequence (Q10730 1-844): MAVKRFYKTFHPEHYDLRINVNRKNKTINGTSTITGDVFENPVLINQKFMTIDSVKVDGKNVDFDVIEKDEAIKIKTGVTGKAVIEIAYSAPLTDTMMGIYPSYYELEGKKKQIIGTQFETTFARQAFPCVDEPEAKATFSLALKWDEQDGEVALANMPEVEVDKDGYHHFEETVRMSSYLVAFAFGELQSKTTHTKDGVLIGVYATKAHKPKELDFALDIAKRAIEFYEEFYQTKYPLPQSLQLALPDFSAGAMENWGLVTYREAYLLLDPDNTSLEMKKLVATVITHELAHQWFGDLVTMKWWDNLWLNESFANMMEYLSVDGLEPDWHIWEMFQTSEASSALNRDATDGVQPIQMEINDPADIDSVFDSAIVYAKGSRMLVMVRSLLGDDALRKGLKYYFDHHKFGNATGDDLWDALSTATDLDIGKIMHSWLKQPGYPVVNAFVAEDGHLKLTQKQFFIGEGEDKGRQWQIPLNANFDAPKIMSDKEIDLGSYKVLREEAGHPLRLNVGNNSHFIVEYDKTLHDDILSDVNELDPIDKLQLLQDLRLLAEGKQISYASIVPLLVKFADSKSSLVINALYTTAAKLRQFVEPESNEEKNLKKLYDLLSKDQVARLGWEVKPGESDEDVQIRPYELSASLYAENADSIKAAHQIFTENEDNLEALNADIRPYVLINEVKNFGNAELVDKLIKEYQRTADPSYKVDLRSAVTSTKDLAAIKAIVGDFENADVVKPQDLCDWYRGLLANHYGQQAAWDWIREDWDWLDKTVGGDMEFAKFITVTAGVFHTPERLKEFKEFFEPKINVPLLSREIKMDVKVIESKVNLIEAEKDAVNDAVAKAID

[2] = target: T2, Aspergillus clavatus NRRL 1 PepN 2 (aminopeptidase type 2) TRI035, SEQ ID NO: 5 (mature SEQ ID NO: 22) (Aspergillus clavatus, UniProt A1CCU6); experiment: Activity on Glu-pNA and Gln-pNA substrates; conditions: 20 mM CPB-Buffer pH 9.0, 45° C., 405 nm
T2 construct: MEROPS M28.008
T2 sequence (A1CCU6 entry or part of it): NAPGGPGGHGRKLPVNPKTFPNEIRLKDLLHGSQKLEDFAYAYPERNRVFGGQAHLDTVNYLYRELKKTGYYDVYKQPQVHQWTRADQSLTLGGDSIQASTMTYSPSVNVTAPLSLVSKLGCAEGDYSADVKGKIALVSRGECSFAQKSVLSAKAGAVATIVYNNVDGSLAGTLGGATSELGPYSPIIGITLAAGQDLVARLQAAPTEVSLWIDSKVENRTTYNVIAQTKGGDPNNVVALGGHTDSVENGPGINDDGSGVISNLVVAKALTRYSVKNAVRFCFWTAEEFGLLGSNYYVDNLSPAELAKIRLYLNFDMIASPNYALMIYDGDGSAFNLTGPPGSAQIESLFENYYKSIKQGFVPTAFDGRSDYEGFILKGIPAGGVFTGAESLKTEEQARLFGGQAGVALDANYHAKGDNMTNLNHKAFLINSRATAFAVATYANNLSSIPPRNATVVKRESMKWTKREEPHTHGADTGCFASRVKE
Description: (§1) H-Glu-Nitroanilid (pNA) and H-Gln-Nitroanilid (pNA) were used as substrates and the release of p-Nitroanilid (pNA) was measured by absorbance at 405 nm. As buffer 20 mM CPB-Buffer (20 mM Citric acid, 20 mM Na-phosphate, 20 mM Boric acid) pH 9.0 was used. 10 mg H-Glu-pNA and H-Gln-pNA (from BACHEM or Schafer N; Copenhagen, Denmark) were dissolved in 1 ml of DMSO (Dimethyl Sulphoxide from SIGMA; cat # D2650).
(§2) For running the assay 80 μL buffer, 10 μL H-Glu-pNA or H-Gln-pNA substrate and 10 uL appropriately diluted PepN 2 was incubated in Costar assay plate 9017 (Corning Inc.) at 45° C. and measured at 405 nm every 30 sec for 30 min in a VERSAMAX® microplate reader (Molecular Devices) running with SoftMaxPro 5.4.1 software. Activity was determined as the maximal slope of the linear part of the curve determined over 10 time points.

[3] = target: T3, Neosartorya fischeri NRRL 181 PepN 2 (aminopeptidase type 2) TRI031, SEQ ID NO: 1 (mature SEQ ID NO: 18) (Aspergillus fischeri, UniProt A1DJ89); experiment: Activity on Glu-pNA and Gln-pNA substrates; conditions: 20 mM CPB-Buffer pH 9.0, 45° C., 405 nm
T3 construct: MEROPS M28.008
T3 sequence (A1DJ89 entry or part of it): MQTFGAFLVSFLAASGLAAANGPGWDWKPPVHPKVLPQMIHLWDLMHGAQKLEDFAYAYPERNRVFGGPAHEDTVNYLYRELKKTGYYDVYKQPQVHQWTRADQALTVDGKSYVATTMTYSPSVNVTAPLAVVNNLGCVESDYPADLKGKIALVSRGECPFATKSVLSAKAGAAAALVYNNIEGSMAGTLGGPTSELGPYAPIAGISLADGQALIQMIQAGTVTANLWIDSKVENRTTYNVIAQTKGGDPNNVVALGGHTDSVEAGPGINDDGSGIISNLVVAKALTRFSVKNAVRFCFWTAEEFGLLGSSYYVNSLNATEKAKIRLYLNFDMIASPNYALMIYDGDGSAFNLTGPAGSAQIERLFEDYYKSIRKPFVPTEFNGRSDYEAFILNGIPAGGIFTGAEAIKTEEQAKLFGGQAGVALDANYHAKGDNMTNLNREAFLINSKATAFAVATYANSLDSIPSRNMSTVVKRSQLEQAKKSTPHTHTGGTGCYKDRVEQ
Description: as §1, §2

[4] = test system: PepN 1 A. sojae (COROLASE LAP), non-purified; experiment: Activity on Glu-pNA and Gln-pNA substrates; conditions: 20 mM CPB-Buffer pH 9.0, 45° C., 405 nm
[5] = test system: peptide TPAAAR (peptide library XPAAAR); experiment: Hydrolysis of peptide with proline in position 2, LC-MS; conditions: within 12 hr; peptide library 1 mg/mL, aminopeptidase 1 ug/mL, 55° C.; FIG. 10
Description: The peptide library XPAAAR (1 mg/mL) (SEQ ID NO:133) was incubated with 1 ug/mL of the aminopeptidase in 3×20 mM CPB-Buffer (20 mM Citric acid, 20 mM Phosphate, 20 mM Boric acid) at 55° C. 50 μL aliquots were stopped with 50 ul 5% TFA at the indicated time points and subjected to LC-MS analysis.
Capillary LC-MS/MS analyses were performed using an Agilent 1100 LC system (Agilent Technologies) interfaced to a LTQ Orbitrap Classic hybrid mass spectrometer (Thermo Scientific, Bremen, Germany). Samples were loaded onto a 15 cm Phenomenex Jupiter 4μ Proteo 90A, C4 analytical column. Separation was performed at a flow rate of 16 μL/min using a 10 min gradient of 0-40% Solvent B H2O/CH3CN/HCOOH (50/950/0.65 v/v/v) into the IONMAX® ion source (Thermo Scientific, San Jose). […] The peptide masses were measured by the Orbitrap (MS scans were obtained with a resolution of 60 000 at m/z 400), and up to 2 of the most intense peptide m/z were selected and subjected to fragmentation using CID in the linear ion trap (LTQ). […]
Label free quantification: The RAW files were accessed with the program Skyline 2.6.0.7176 (MacLean, B., et al., supra) which uses the MS1 intensities to build chromatograms (Schilling, B., et al., supra). […] Peptide sequences of the substrate as well as cleavage products were typed into Skyline and intensities were calculated in each sample. […]

[6] = test system: whey protein isolate (WPI); experiment: Degree of hydrolysis of WPI with endopeptidases plus PepN; conditions: 50° C., 18 hr
Description: Enzyme activities of PepN 1 Lactobacillus helveticus ATCC® 12046, PepN 1 Aspergillus oryzae and from PepN 2 from Aspergillus clavatus (TRI035) were determined according to Stressler, Eisele et al. (2013, infra). PepN 1 from L. helveticus was expressed and purified as described by Stressler, Eisele et al. (2013, infra).
The PepN 1 and 2 aminopeptidases were standardized to the activity range of 2.5-200 nkat*mL^−1. For protein hydrolyses, 1% (w/wWPI) FOODPRO® Alkaline Protease (DuPont, Brabrand, Denmark) and 1% (w/wWPI) FOODPRO® PNL (DuPont, Brabrand, Denmark) were added to the whey protein isolate suspension (WPI; LACPRODAN® 9224, Arla Ingredients, Viby, Denmark) with an initial pH of 7.0. Following the endopeptidases addition, the WPI was mixed and 200 μL were transferred to each well of a 96-well microtiter plate. The hydrolysis was conducted at 50° C. without pH control and terminated after 18 hr by addition of 20 μL of 2 M TCA. Prior to the determination of the DH (Nielsen, Petersen et al., 2001, infra), all samples were filtered 0.22 μm.

NC(=O)CC[C@H](N)C(=O)Nc1ccc([N+](=O)[O-])cc1 [Gln-pNA, H-Gln-Nitroanilid]
Vmax (Gln-pNA) [1]: 0 mU/min | Vmax (Gln-pNA) [2]: 98.7 mU/min | Vmax (Gln-pNA) [3]: 75.9 mU/min | Vmax (Gln-pNA) [4]: 0 mU/min

N[C@@H](CCC(=O)O)C(=O)Nc1ccc([N+](=O)[O-])cc1 [Glu-pNA, H-Glu-Nitroanilid]
Vmax (Glu-pNA) [1]: 0.02 mU/min | Vmax (Glu-pNA) [2]: 20.1 mU/min | Vmax (Glu-pNA) [3]: 50.8 mU/min | Vmax (Glu-pNA) [4]: 0 mU/min

B1: TRI063 (A. oryzae): leucine aminopeptidase 2 from Aspergillus oryzae RIB40 (NCBI Reference Sequence: XP_001819545.1) (protein, listed as Aspergillus oryzae)
chain: MRSLLWASLLSGVLAGRALVSPDEFPEDIQLEDLLEGSQQLEDFAYAYPERNRVFGGKAHDDTVNYLYEELKKTGYYDVYKQPQVHLWSNADQTLKVGDEEIEAKTMTYSPSVEVTADVAVVKNLGCSEADYPSDVEGKVALIKRGECPFGDKSVLAAKAKAAASIVYNNVAGSMAGTLGAAQSDKGPYSAIVGISLEDGQKLIKLAEAGSVSVDLWVDSKQENRTTYNVVAQTKGGDPNNVVALGGHTDSVEAGPGINDDGSGIISNLVIAKALTQYSVKNAVRFLFWTAEEFGLLGSNYYVSHLNATELNKIRLYLNFDMIASPNYALMIYDGDGSAFNQSGPAGSAQIEKLFEDYYDSIDLPHIPTQFDGRSDYEAFILNGIPSGGLFTGAEGIMSEENASRWGGQAGVAYDANYHAAGDNMTNLNHEAFLINSKATAFAVATYANDLSSIPKRNTTSSLHRRARTMRPFGKRAPKTHAHVSGSGCWHSQVEA
hydrolysis of TPAAAR [5]: no hydrolysis

B2: PepN 1: L. helveticus: PepN 1 from Lactobacillus helveticus ATCC 12046, expressed and purified as described by Stressler, Eisele et al. (2013) (protein, UniProt Q10730 1-844, looked up)
Aminopeptidase N: MAVKRFYKTFHPEHYDLRINVNRKNKTINGTSTITGDVFENPVLINQKFMTIDSVKVDGKNVDFDVIEKDEAIKIKTGVTGKAVIEIAYSAPLTDTMMGIYPSYYELEGKKKQIIGTQFETTFARQAFPCVDEPEAKATFSLALKWDEQDGEVALANMPEVEVDKDGYHHFEETVRMSSYLVAFAFGELQSKTTHTKDGVLIGVYATKAHKPKELDFALDIAKRAIEFYEEFYQTKYPLPQSLQLALPDFSAGAMENWGLVTYREAYLLLDPDNTSLEMKKLVATVITHELAHQWFGDLVTMKWWDNLWLNESFANMMEYLSVDGLEPDWHIWEMFQTSEASSALNRDATDGVQPIQMEINDPADIDSVFDSAIVYAKGSRMLVMVRSLLGDDALRKGLKYYFDHHKFGNATGDDLWDALSTATDLDIGKIMHSWLKQPGYPVVNAFVAEDGHLKLTQKQFFIGEGEDKGRQWQIPLNANFDAPKIMSDKEIDLGSYKVLREEAGHPLRLNVGNNSHFIVEYDKTLHDDILSDVNELDPIDKLQLLQDLRLLAEGKQISYASIVPLLVKFADSKSSLVINALYTTAAKLRQFVEPESNEEKNLKKLYDLLSKDQVARLGWEVKPGESDEDVQIRPYELSASLYAENADSIKAAHQIFTENEDNLEALNADIRPYVLINEVKNFGNAELVDKLIKEYQRTADPSYKVDLRSAVTSTKDLAAIKAIVGDFENADVVKPQDLCDWYRGLLANHYGQQAAWDWIREDWDWLDKTVGGDMEFAKFITVTAGVFHTPERLKEFKEFFEPKINVPLLSREIKMDVKVIESKVNLIEAEKDAVNDAVAKAID
Degree of hydrolysis ([6]; PepN dosage 2.5 nkat/mL in stock solution): 18% | Degree of hydrolysis ([6]; PepN dosage 5 nkat/mL in stock solution): 18% | Degree of hydrolysis ([6]; PepN dosage 10 nkat/mL in stock solution): 20% | Degree of hydrolysis ([6]; PepN dosage 25 nkat/mL in stock solution): 23% | Degree of hydrolysis ([6]; PepN dosage 50 nkat/mL in stock solution): 23% | Degree of hydrolysis ([6]; PepN dosage 75 nkat/mL in stock solution): 24% | Degree of hydrolysis ([6]; PepN dosage 100 nkat/mL in stock solution): 28% | Degree of hydrolysis ([6]; PepN dosage 200 nkat/mL in stock solution): 27%
